In patent publication US20240100176A1 (Eli Lilly, published 2024):

Legend:
Experiment in all cases: capture ELISA: Ab1 on anti-human IgG Fc, His-tagged receptor at 0.04 µg/mL, anti-His HRP
[1] = biological target: T1, hexahistidine tagged human IL-4Rα ECD K2D (human, UniProt P24394 26-232)
T1 construct: not shown: hexahistidine tag
Text: (§1) Example 2d. […] Briefly, thirty surface amino acid residue substitutions were introduced individually into hexahistidine tagged human IL-4Rα extra cellular domain (ECD) as follows: K2D, E6R, K22D, P26R, T31R, F41A, L42G, L43G, E45R, E52R, G56R, D66R, A71R, Q82G, K87D, E94R, H107A, D108R, P124R, D125R, D143R, R148D, L155R, R160D, S164R, S168R, Q181R, P192R, K195D, or H197G. Each mutant protein having a single amino acid residue substitution as described above was transiently expressed in CHO cells and purified using standard immobilized metal affinity chromatography techniques. […] The plates were then washed 3 times with PBST and the exemplified human IL-4Rα antibody was added to the wells at a final concentration of 1 μg/mL in PBS-casein and incubated for 1 hour at room temperature. The plates were washed 3 times with PBST, the IL-4Rα mutant proteins were serially diluted 5-fold from 1 μg/mL for 3 points. in PBS-casein and added to the plate at 50 μL/well and incubated for 1 hour at room temperature. The plates were washed 3 times with PBST and a 1000-fold dilution of anti-histidine tag antibody HRP conjugate (R&D Systems, Cat. #MAB050H) in PBS-casein was added and incubated for 45 minutes at room temperature. The plates were washed 3 times, TMB substrate (Pierce, Cat. #34028) was added per manufacturer instructions, the reaction was quenched with H₂SO₄, and absorbance was read at 450 nm on an ELISA plate reader.

[2] = biological target: T2, hexahistidine tagged human IL-4Rα ECD E6R (human, UniProt P24394 26-232)
T2 construct: not shown: hexahistidine tag
T2 sequence (P24394 other isoform, or with tags, fused parts or gaps): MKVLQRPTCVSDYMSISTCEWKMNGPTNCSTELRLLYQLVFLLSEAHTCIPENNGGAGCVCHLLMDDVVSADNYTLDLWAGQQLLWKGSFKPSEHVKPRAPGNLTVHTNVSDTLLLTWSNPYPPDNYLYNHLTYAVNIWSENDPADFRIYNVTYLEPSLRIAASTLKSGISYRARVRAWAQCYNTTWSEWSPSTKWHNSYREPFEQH
Text: as §1

[3] = biological target: T3, hexahistidine tagged human IL-4Rα ECD K22D (human, UniProt P24394 26-232)
T3 construct: not shown: hexahistidine tag
T3 sequence (P24394 26-232 K47D): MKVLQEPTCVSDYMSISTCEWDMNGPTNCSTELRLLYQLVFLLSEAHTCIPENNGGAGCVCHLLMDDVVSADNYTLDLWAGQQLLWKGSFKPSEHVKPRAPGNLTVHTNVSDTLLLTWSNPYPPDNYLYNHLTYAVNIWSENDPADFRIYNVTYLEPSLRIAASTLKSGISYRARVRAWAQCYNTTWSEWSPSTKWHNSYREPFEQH
Text: as §1

[4] = biological target: T4, hexahistidine tagged human IL-4Rα ECD P26R (human, UniProt P24394 26-232)
T4 construct: not shown: hexahistidine tag
Text: as §1

[5] = biological target: T5, hexahistidine tagged human IL-4Rα ECD T31R (human, UniProt P24394 26-232)
T5 construct: not shown: hexahistidine tag
T5 sequence (P24394 26-232 T56R): as the sequence (P24394 26-232 K47D) above, with D22K, T31R counted along it
Text: as §1

[6] = biological target: T6, hexahistidine tagged human IL-4Rα ECD E45R (human, UniProt P24394 26-232)
T6 construct: not shown: hexahistidine tag
T6 sequence (P24394 26-232 E70R): as the sequence (P24394 26-232 K47D) above, with D22K, E45R counted along it
Text: as §1

[7] = biological target: T7, hexahistidine tagged human IL-4Rα ECD A71R (human, UniProt P24394 26-232)
T7 construct: not shown: hexahistidine tag
T7 sequence (P24394 26-232 A96R): as the sequence (P24394 26-232 K47D) above, with D22K, A71R counted along it
Text: as §1

[8] = biological target: T8, hexahistidine tagged human IL-4Rα ECD Q82G (human, UniProt P24394 26-232)
T8 construct: not shown: hexahistidine tag
Text: as §1

[9] = biological target: T9, hexahistidine tagged human IL-4Rα ECD H107A (human, UniProt P24394 26-232)
T9 construct: not shown: hexahistidine tag
T9 sequence (P24394 26-232 H132A): as the sequence (P24394 26-232 K47D) above, with D22K, H107A counted along it
Text: as §1

[10] = biological target: T10, hexahistidine tagged human IL-4Rα ECD P124R (human, UniProt P24394 26-232)
T10 construct: not shown: hexahistidine tag
Text: as §1

[11] = biological target: T11, hexahistidine tagged human IL-4Rα ECD D125R (human, UniProt P24394 26-232)
T11 construct: not shown: hexahistidine tag
T11 sequence (P24394 26-232 D150R): as the sequence (P24394 26-232 K47D) above, with D22K, D125R counted along it
Text: as §1

[12] = biological target: T12, hexahistidine tagged human IL-4Rα ECD D143R (human, UniProt P24394 26-232)
T12 construct: not shown: hexahistidine tag
T12 sequence (P24394 26-232 D168R): as the sequence (P24394 26-232 K47D) above, with D22K, D143R counted along it
Text: as §1

[13] = biological target: T13, hexahistidine tagged human IL-4Rα ECD L155R (human, UniProt P24394 26-232)
T13 construct: not shown: hexahistidine tag
T13 sequence (P24394 26-232 L180R): as the sequence (P24394 26-232 K47D) above, with D22K, L155R counted along it
Text: as §1

[14] = biological target: T14, hexahistidine tagged human IL-4Rα ECD R160D (human, UniProt P24394 26-232)
T14 construct: not shown: hexahistidine tag
T14 sequence (P24394 26-232 R185D): as the sequence (P24394 26-232 K47D) above, with D22K, R160D counted along it
Text: as §1

[15] = biological target: T15, hexahistidine tagged human IL-4Rα ECD S164R (human, UniProt P24394 26-232)
T15 construct: not shown: hexahistidine tag
Text: as §1

[16] = biological target: T16, hexahistidine tagged human IL-4Rα ECD S168R (human, UniProt P24394 26-232)
T16 construct: not shown: hexahistidine tag
Text: as §1

[17] = biological target: T17, hexahistidine tagged human IL-4Rα ECD Q181R (human, UniProt P24394 26-232)
T17 construct: not shown: hexahistidine tag
T17 sequence (P24394 26-232 Q206R): as the sequence (P24394 26-232 K47D) above, with D22K, Q181R counted along it
Text: as §1

[18] = biological target: T18, hexahistidine tagged human IL-4Rα ECD P192R (human, UniProt P24394 26-232)
T18 construct: not shown: hexahistidine tag
T18 sequence (P24394 26-232 P217R): as the sequence (P24394 26-232 K47D) above, with D22K, P192R counted along it
Text: as §1

T1 sequence (P24394 other isoform, or with tags, fused parts or gaps): as the sequence (P24394 26-232 K47D) above, with K2D, D22K counted along it

ELISA (OD450) [1]: 1.09 OD450
ELISA (OD450) [2]: 0.915 OD450
ELISA (OD450) [3]: 0.593 OD450
ELISA (OD450) [4]: 0.883 OD450
ELISA (OD450) [5]: 0.994 OD450
ELISA (OD450) [6]: 1.58 OD450
ELISA (OD450) [7]: 0.907 OD450
ELISA (OD450) [8]: 1.1 OD450
ELISA (OD450) [9]: 1.42 OD450
ELISA (OD450) [10]: 1.16 OD450
ELISA (OD450) [11]: 1.01 OD450
ELISA (OD450) [12]: 1.27 OD450
ELISA (OD450) [13]: 1.14 OD450
ELISA (OD450) [14]: 1.2 OD450
ELISA (OD450) [15]: 1.4 OD450
ELISA (OD450) [16]: 1.18 OD450
ELISA (OD450) [17]: 1.17 OD450
ELISA (OD450) [18]: 1.22 OD450
B1: anti-human IL-4Rα antibody Ab1 (antibody, human IgG4 S228P, kappa)
heavy: QVQLVESGGGLVQPGGSLRLSCVASGFTFSHSSMNWVRQAPGKGLEWVSYISRATGAVYYADSVKGRFTISRDNAKNSLYLQMNSLRDEDTAVYYCAREPVFDYWGQGTLVTVSSASTKGPCVFPLAPCSRSTSESTAALGCLVKDYFPEPVTVSWNSGALTSGVHTFPAVLQSSGLYSLSSVVTVPSSSLGTKTYTCNVDHKPSNTKVDKRVESKYGPPCPPCPAPEFLGGPSVFLFPPKPKDTLMISRTPEVTCVVVDVSQEDPEVKFNWYVDGVEVHNAKTKPREEQFNSTYRVVSVLTVLHQDWLNGKEYKCKVSNKGLPSSIEKTISKAKGQPREPQVYTLPPSREEMTKNQVSLTCLVKGFYPSDICVEWESNGQPENNYKTTPPVLDSDGSFFLYSRLTVDKSRWQQGNVFSCSVMHEALHNHYTQKSLSLSLG
light: DIQMTQSPSAMSASVGDRVTITCRASQDISNYLAWFQQKPGKVPTRLIYAASSLQSGVPSRFSGSGSGTEFTLTISSLQPEDFATYYCLQWSSYPRTFGQGTKVEIKRTVAAPSVFIFPPSDEQLKSGTASVVCLLNNFYPREAKVQWKVDNALQSGNSQESVTEQDSKDSTYSLSSTLTLSKADYEKHKVYACEVTHQGLSSPVTKSFNRGEC
notes: human kappa light chain; also called anti-human IL-4Rα Ab1; unconjugated Ab1
